Test: soluble on expression in E. coli; label from the status in PepcDB or PDB records

Soluble on expression in E. coli, not soluble:
MGSDKIHHHHHHMKNYALLNGAYDNKTMYDFKPVRADNTYLYDSQNRKYLDLRSGLWNTSLGYIDSLYQRVSKRFDQVLNKKLPYLDIHSFQHDIYDEVAQKVLELTGHAFKRVLYTNSGSENTELALKIADYTNKKGENNRILAFKDSYHGTFFGGVSVSGIDQEINSSFYPKYGEVTFIDYPKSAEQEKNVLDYIANVASFYDVMMIEPILASAGIYFASTDFFNALLKLLRKNQVLIVFDEVATGFFKTGKPFYFQQLSEKPDILCLSKAINNGITSFGCVCVNEEVDAKLQKNPKTMEHFSTQNGNLLGLESANIVLDYYLKSRDVIKGKVKDISDSISNVLDSQNVFYRNQGIMTAIRTESNQSLQLMKSLEKLGILTYLYVNEEEEGLSIMPPININLNVLEKALKLISKKIESQNSF
MGSDKIHHHHHHMNFIDTLKSVDLILSTGEVPLIVGESGIGKTALANKLAKENDWSLIVIDGNLLKEGEIGGLPTIESYVGVNSNGYKTEKKTTVYAVHNKLREIDEEISKSKTVLLFIDEINRCEHTVQQELMNLILNREINGYKLHDDVKILAAMNPSSKYGSDFDYQVVDMDAAQENRFVWLNMESDHTQWIKWAIDEGIERKVIEFISTFPEYLHKINEDDVRATPRSYERVSKIYKVYKEKNNSIPRAVFLNVVKGNVGKVIAEEFISFIESNFEPLISYEDVFLGESIDESIVERVKNESHTRLYLSAMNILKDLELNIKNDKYESNHYINRFIEFLKMYPVDLMIGIMKDIRNSYIEVYKKAIENEEFVKSYFESYSLIRG
FVAHSSGQEVKLDKAPIDRADKESLQRGAKGFVEYCLTCHGANFMRFNRHHDIGMSEDDIRADLIHTGQKTGDLMEAAMRKKEAEGWFGVVPPDLSVIARARGADWLYTYLRTFYQDTSTYSGWNNLIFDKVAMPHVLHHLQGWQVLEPGTGNLVQTKPGTMTKEEYDRFVADLVNYMVYLGEP
MGSDKIHHHHHHMWDYDRLFEIIEELVMHHSPSGAEAEINQLLMQRFAALGVEVWCDRADNIIAKIPGKNPDRAMSNDKPLLYERLRQRAYAITAHKDEIGAIVKSLGDEGRVEVRKLGGSFPWVYGEGVVDLLGDRETISGILSFGSRHVSHESPQKVQQEDTTVKWENAWIETKRTTDELEAAGVRPGTRMVIGKHRKHPIRLKDHIASYTLDNKASVAILLALAENLKQPVVDVYLVASAKEEVGAIGALFFTQNQPLDALIALEVCPLSEEYPIKDGESPILLSQDAYGIYDEGLNGQVRQSAKQLDIPVQLTILSQFGSDASIAMKFGHVARAACLAFPTQNTHGYEIAHLGAIANCIDLLKAFCETEF
MGSDKIHHHHHHMFQDKYVFAQLASFLNRSKFNRIVTKYDGDKYVKHFTCWNQLLALMFGQLSNRESLRDLIVALEAHHSKCYHLGMGKNVSKSSLARANQDRDYHIFEEYAYYLVSEARQKCANHIFKLGGNVYAFDSTTIDLCLSVFWWAKFRKKKGGIKVHTLYDVETQIPAFFHITEASVHDSKVMIEIPYEPSSYYIFDRGYNNFKMLYKIHQIEAYFVVRAKKNLQYKSIQWKRRLPKNVLSDASVLLTGFYPKQYYPKPLRLVKYWDEEQEREFTFITNAMHISALQVAELYKNRWQVELFFKWLKQHLKIKRFWGTTENAVRIQIYAAICAYCLVAIIQHDMQLDRSTYEVLQILSISLTDKTHLRDLFDKTKFQNDKERFGPNGPSLFNF
MAFKLPNLPYAYDALEPYIDQRTMEFHHDKHHNTYVTKLNATVEGTELEHQSLADMIANLDKVPEAMRMSVRNNGGGHFNHSLFWEILSPNSEEKGGVIDDIKAQWGTLDEFKNEFANKATTLFGSGWTWLVVNDGKLEIVTTPNQDNPLTEGKTPILLFDVWEHAYYLKYQNKRPDYMTAFWNIVNWKKVDELYQAAK
MGSDKIHHHHHHMTVDTRPAVGNPGYATSSPELERWLARHISEGFGAESLVLSMLRSGYDAAFARSAVATAMGHRRPDASATQPAPRLARREVPVLFSLQSPSIRLYQHLLSDAECDALVELARGRLARSPVINPDTGDENLIDARTSMGAMFQVGEHTLIQRIEDRIAAVLGVPVDHGEGLQILNYKPGGEYQPHFDFFNPKRPGEARQLRVGGQRTATLVIYLNTPQAGGATAFPRIGLEVAPVKGNAVYFSYLQPDGKLDERTLHAGLPVQSGEKWIATKWLREHPYRAGA
MGSDKIHHHHHHMSIIFDKNLGILEKTIEEIQNEKKHILRTKYGINIKDNSIYDIINFPSSSIDKQISEVLKELFSKIKENGSYFNALKEDLSTPKSSTYEAIRKALLNVEGVKHINILSGPGTINLYLILQDDCFQDQEKKQIKIETKQNIWQAIYYTAPSGTVFKGDIEIEFLNKHNQKKTYKFSLGKKKYAYLKVVYKTEAKDAIYKEIDTQIRDIYNKILTDKYIEMGTSLRYQDFLAPVSIIRGIKELKIGICIKNDETKKITQLSDSDFTFNKDENTKEDEIIIFNTNKRLLINRE
MGSDKIHHHHHHMKLSINKNTLESAVILCNAYVEKKDSSTITSHLFFHADEDKLLIKASDYEIGINYKIKKIRVESSGFATANAKSIADVIKSLNNEEVVLETIDNFLFVRQKSTKYKLPMFNHEDFPNFPNTEGKNQFDIDSSDLSRSLKKILPSIDTNNPKYSLNGAFLDIKTDKINFVGTDTKRLAIYTLEKANNQEFSFSIPKKAIMEMQKLFYEKIEIFYDQNMLIAKNENFEFFTKLINDKFPDYEKVIPKTFKQELSFSTEDFIDSLKKISVVTEKMRLHFNKDKIIFEGISLDNMEAKTELEIQTGVSEEFNLTIKIKHLLDFLTSIEEEKFTLSVNEPNSAFIVKSQGLSMIIMPMIL

Soluble on expression in E. coli, soluble:
GSAAATGPSFWLGNETLKVPLALFALNRQRLCERLRKNPAVQAGSIVVLQGGEETQRYCTDTGVLFRQESFFHWAFGVTEPGCYGVIDVDTGKSTLFVPRLPASHATWMGKIHSKEHFKEKYAVDDVQYVDEIASVLTSQKPSVLLTLRGVNTDSGSVCREASFDGISKFEVNNTILHPEIVECRVFKTDMELEVLRYTNKISSEAHREVMKAVKVGMKEYELESLFEHYCYSRGGMRHSSYTCICGSGENSAVLHYGHAGAPNDRTIQNGDMCLFDMGGEYYCFASDITCSFPANGKFTADQKAVYEAVLRSSRAVMGAMKPGVWWPDMHRLADRIHLEELAHMGILSGSVDAMVQAHLGAVFMPHGLGHFLGIDVHDVGGYPEGVERIDEPGLRSLRTARHLQPGMVLTVEPGIYFIDHLLDEALADPARASFFNREVLQRFRGFGGVRIEEDVVVTDSGIELLTCVPRTVEEIEACMAGCDKAFTPFSGPK
MSLSRQRCIIVGASHGGVNLAFALRKEGYEGRITLIDADCNLPYHRPPLSKTHLIANEPAGQLLKPEQGYQKADISLMLGVSVVDVKSKNKQVLLDDGTRHPYTQLVLATGASPITPPIPGIDSAKHLYTIRTADDAHAIATAFKQSEQKRVVVIGGGYVGLETAASLRKSGAVVTVLEREPRLLARVTAPMMSDYFYALHRQHGVEVHNDKNVSEIKTNANENSVVCSDGSEYPADIIIVGVGVRVNTALADKANLEINNGIVVNEANQTSAQDIFAIGDCCAQFNPHYQRWLRLESVQNALDQGKVAAAAICHKAFKTQPVPWFWSDQYNIKLQMVGLSQGYDDVVMRKELDKPDSFSVWYFKGNELLAVDAVNNAKAYVLGTKFINAMEQVDKNKLTDNSAPLSASIIKEFAEGHHHHHH
MSLTIYHPAELPQRQAEKSPNKTIIKYYDRESKQWRNISWSKFAAGVMNAAKALAEIGLESGERIGIYSPNMVHCLYTELGAFAMRGVVVPLYATSSPEQLRFIVEDSSMETLFVGEQFQYNNAYRVQKEYGTLKRIVVFDERVVLNPEDKTSKYFSEFVRLGDSMPNETKVKVSSREAIPSDPALIIYTSGTSGRSKGVLLLHSNLMYQMKVHSEHIPVYGPGELSIAFLPMSHIFEKAWTLFCLTTGTRIAILRDPKKVLEALPQIRPSLMCNVPRFWEKVYQGVNEKMASSPRILKGVYRRAMAVGQRYRLDYWNEGKRAPLLLSMQYAFYNCTIFTLLKRVLGLQRGRYFPTAGAPLSDEINIFLQSVNIPIIVGYGLSETTATVSFYPQRGFKIGSMGKVMPGLDARIDPDNNEILVKGESVMSEYYNLPEETAGAFTPDGYFRTGDAGRMDPDGTLYFLERIKDLYKTANGKYIAPQMIEGMLTKDPIIEQIAVIGDRFKYVSALVYPNWELVRQAAIKRGLEQARTMSVDEMAANPEINRLMMARIEAAQDSLAAYEKVKYITLLAEPFTLEKGELTETMKLKRRVINEHYAEAIEKMYEGHHHHHH

Source: the DeepSol protein solubility set
